Reference: patent CN116970083A (SHANGHAI UNICAR THERAPY BIO MEDICINE TECH CO LTD, dated 2023)

T1: Human TROP-2/TACSTD2 Protein, His Tag (带有His标签的人滋养层细胞表面抗原2(Trop2)胞外段蛋白) (human, UniProt P09758 27-274)
T1 construct: extracellular domain; Bought protein; also called Trop2-His; Trop2抗原; not shown: His tag
T1 sequence (looked up): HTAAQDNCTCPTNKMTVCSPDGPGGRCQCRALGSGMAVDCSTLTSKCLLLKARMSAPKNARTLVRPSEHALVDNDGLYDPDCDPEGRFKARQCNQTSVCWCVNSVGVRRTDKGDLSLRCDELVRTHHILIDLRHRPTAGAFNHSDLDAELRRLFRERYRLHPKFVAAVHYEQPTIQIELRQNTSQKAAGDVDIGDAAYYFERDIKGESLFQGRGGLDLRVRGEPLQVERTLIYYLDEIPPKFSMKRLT


How the values were obtained:
[1] = target: T1, Human TROP-2/TACSTD2 Protein, His Tag …; assay: phage ELISA, Trop2-His coated at 1ug/ml, anti-M13-HRP, OD450
[2] = target: Trop2 on the surface of tumour cell lines (H1975, MDA-MB-231, Bxpc3, T24, PC-9) (UniProt P09758); assay: flow cytometry on MDA-MB-231 cells, antibody 5ug/ml, anti-Fc PE; blank cells without antibody MFI 938
[3] = target: Trop2 on the surface of tumour cell lines (H1975, MDA-MB-231, Bxpc3, T24, PC-9) (UniProt P09758); assay: flow cytometry on Bxpc3 cells, antibody 5ug/ml, anti-Fc PE; blank cells without antibody MFI 557
[4] = target: T1, Human TROP-2/TACSTD2 Protein, His Tag …; assay: ELISA, Trop2-His coated at 1ug/ml, antibody diluted 3.3-fold from 5ug/ml, anti-human IgG-Fc HRP
[5] = target: Trop2 on the surface of tumour cell lines (H1975, MDA-MB-231, Bxpc3, T24, PC-9) (UniProt P09758); assay: flow cytometry on H1975 cells, antibody 5ug/ml, anti-Fc PE; blank cells without antibody MFI 621

Binder | binding result [1] | MFI (Median fluorescence intensity) [2] | MFI (Median fluorescence intensity) [3] | binding result [4] | MFI (Median fluorescence intensity) [5]
抗Trop2阳性克隆3 (T3), scFv displayed on phage (scFv, Tested as phage supernatant (scFv on M13 phage); also called T3单克隆; T3抗Trop2 scFv) scFv: DIQMTQSPSTLSASVGDRVTITCRASQSISSWLAWYQQKPGKAPKLLIYKASSLESGVPPRFSGSGSGAEFTLTISSLQPDDFATYYCQQYNSYPLTFGGGTKVEVKGGGGSGGGGSGGGGSEVQLVQSGGGLVQPGGSLRLSCEDSGFTFSSYWMSWVRQAPGKGLEWVSSISSSSSYIYYADSVKGRFTISRDNAKNSLYLQMNSLRGEDTAVYYCAREQSSSGFDYWGQGTLVTVSS | binds |  |  |  | 
T3单克隆抗体 (T3抗Trop2单克隆抗体) (antibody, human IgG1, kappa, V domains shown, also called Trop2抗体) VH: EVQLVQSGGGLVQPGGSLRLSCEDSGFTFSSYWMSWVRQAPGKGLEWVSSISSSSSYIYYADSVKGRFTISRDNAKNSLYLQMNSLRGEDTAVYYCAREQSSSGFDYWGQGTLVTVSS VL: DIQMTQSPSTLSASVGDRVTITCRASQSISSWLAWYQQKPGKAPKLLIYKASSLESGVPPRFSGSGSGAEFTLTISSLQPDDFATYYCQQYNSYPLTFGGGTKVEVKR |  | 3150 | 174000 | binds | 65600
